Measured values from US20240409617A1.
Substitutions are numbered along the chain they refer to.

B1: Ab_18 scFv-Fc (scFv, V domains shown)
VH: EVQLVQSGGGVVQPGRSLRVSCAASGFSFSRYGMHWVRQAPGKGLEWVAFIRHDGSKKYYADSVEGRFTISRDNSRNTVSLEMNSLRGEDTAVYYCAKDGRLEAALDDWGQGTLVTVSS
VL: NFMLTQPHSMSGSAGKTVTVSCIRSSGSIANNFVQWYQQRPGSAPTTVIYEDNQRPSGVPDRFSGSIDSSSNSASLTISGLKTEDEADYYCQSYDSSNLVFGGGTRLTVL
B2: Ab_17 scFv-Fc (scFv, V domains shown)
VH: QVQLVQSGGGVVQPGRSLRLSCAASGFTFDDYAMHWVRQVPGKGLEWVSGIDWNSGVIGYADSVKGRFTISRDNVKNSLYLQMNSLRTEDSALYYCAKDIGPGGSGSYYAFDIWGQGTTVTVSS
VL: QSALTQPASVSGSPGQSITISCTGTSSDVGGSKYVSWYQQHPGKAPKVMIYDVTKRPSGVPDRFSGSKSGNTASLTISGLQAEDEADYYCAAWDDSLNGVVFGGGTKLTVL
B3: S1-RBD-R3-T1-F5 (Ab2-7) scFv-Fc (scFv, V domains shown)
VH: QVTLKESGPTRVKPTQTLTLTCTFSGFSLSTTGVGVGWIRQPPGKALEWLALIYWNDDKRYSPSLKSRLTITKDTSKNQVVLTMTNMDPVDTATYYCARISGSGYFYPFDIWGQGTTVTVSS
VL: NFMLTQPHSVSESPGKTVTISCTRSSGSIASNYVQWYQQRPGSSPTTVIYEDNQRPSGVPDRFSGSIDSSSNSASLTISGLKAEDEADYYCQSYDSSSLWVFGGGTKLTVL
B4: Ab_20 scFv-Fc (scFv, V domains shown)
VH: QVQLVQSGGGSVKPGGSLRLSCAASGYRLSDYYMHWVRQAPGKGLEWVANIKQDGSEKYYVDSVKGRFTISRDNAKNSLYLQMNSLRAEDTAVYYCARVRGWSRGYFDYWGQGTLVTVSS
VL: B3 VL with R24G, S44A, T77L, A83T, S98N, L99H
B5: Ab_25 scFv-Fc (scFv, V domains shown)
VH: QVQLVQSGGGLVQPGGSLRLSCAASGFTFSSYWMSWVRQAPGKGLEWVANIKQDGSEKYYVDSVKGRFTISRDNAKNSLYLQMNSLRAEDTAVYYCARGFYYYGAFDIWGQGTTVTVSS
VL: B3 VL with R24G, S44A, D68G, A83T, S98N, L99H
B6: Ab_13 scFv-Fc (scFv, V domains shown)
VH: B3 VH with T10K, R11L, T32S, N56D, T72A, N78Y, T117M, S122A
VL: B3 VL with S44A, A83T, S98N
B7: Ab_21 scFv-Fc (scFv, V domains shown)
VH: QVQLVQSGGGLVQPGGSLRLSCATSGFTFDDYAMHWVRQAPGKGLEWVSGISWNSGSIGYVDSVKGRFTISRDNRNNKVYLQMNNLRAEDTAVYYCARDWWGSIDHWGLGTLVTVSS
VL: QSALTQPRSVSGSPGQSVTISCTGTSSDVGGYDYVSWYQQHPGKAPKLIIYDVSKRPSGVPDRFSGSKSGNTASLTVSGLQAEDEADYYCSSYTSSSPVVFGGGTKLTVL
B8: Ab_23 scFv-Fc (scFv, V domains shown)
VH: EVQLVQSGAEVKKPGSSVKVSCRSSGGTFSTYGITWVRQAPGQGLEWMGRIIPSLGIPNYAQKFQGRVTITADTSVSTAWMELSSLESDDTAIYYCARENIDLATNDFWGQGTLVTVSS
VL: QSALTQPPSASGSPGQSVTISCTGTSRDIGAYGYVSWYQQVPGKAPKLIIYEVRNRPSGVSSRFSGSKSGNTASLTISGLQAEDEADYYCSSYTSSSTLDVVFGGGTKLTVL
B9: Ab_14 scFv-Fc (scFv, V domains shown)
VH: QVQLQQSGPGLVKPSQTLSLTCAISGDSVSSNSAAWNWIRQSPARGLEWLGRTYYRSRWYNDYAISMKSRITINPDTSKNQFSLQLESVTPEDTAVYYCAREIRGFDYWGQGTLVTVSS
VL: QSVLTQPPSASGSPGQSVTISCTGTSSDVGAYNFVSWYQHHPGKAPKLIIYDFNKRPSGVPDRFSGSKSGNTASLTVSGLQADDEADYYCSSYAGSNNFDVVFGGGTKLTVL
B10: S1-R3-T1-C4 (Ab_8) scFv-Fc (scFv, V domains shown)
VH: QVQLVQSGAEVKKPGSSVKVSCKASGGTFSSYAISWLRQAPGQGLEWMGWINPNSGGTNYAQKFQGRVTMTRDTSISTAYMELSRLRSDDTAVYYCARGSGGYYLGWGQGTLVTVSS
VL: QPGLTQPPSVSKGLRQTATLTCTGNSNNVGNQGAAWLQQHQGHPPKLLSYMNNNRPPGISERFSASRSGNTASLTITGLQPEDEADYYCSAWDSSLSRWVFGGGTKLSVL
B11: Ab_19 scFv-Fc (scFv, V domains shown)
VH: EVQLVESGAEVKKPGESLKISCKGSGYSFTSYWIGWVRQMPGKGLEWMGIIYPGDSDTRYSPSFQGQVTISADKSISTAYLQWSSLKASDTAMYYCARRGDLDAFDIWGQGTMVTVSS
VL: QPGLTQPPAASGTPGQRVTVSCSGASANIGSNAVSWFKQFPETAPRLLISGNTHRPSGVPDRVSGSKSGTSASLTISGLQSDDEADYYCAAWDDSLNGYVFGSGTKVTVL
B12: Ab_26 scFv-Fc (scFv, V domains shown)
VH: QVQLVQSGGGLVQPGRSLRLSCAASGFTFDDYAMHWVRQVPGKGLEWVSGIDWNSGVIGYADSVKGRFTISRDNAKNSLYLQMNSLRAEDTALYYCAKDAYSYGFLGAFDIWGQGTMVTVSS
VL: LPVLTQPPSVSVAPGQTASITCGGDNIRTKGVHWYQQKPGQAPLLVIYYASDRPSGIPERFSGSSSGNTATLTISRVEAGDEADYYCQVWDSSSDLVVFGGGTTLTVL
B13: Ab_16 scFv-Fc (scFv, V domains shown)
VH: QVQLVQSGGGVVQPGRSLRLSCAASGFTFSNYGMHWVRQAPGKGLEWVALIWERGSKKDYADSVKGRFTVSRDNSKNTLYLQMNSLRPEDTAVYFCAREGISMTGAEYFQHWGQGTLVTVSS
VL: QSVLTQPPSVSGSPGQRVTMSCTGSSSNIGAGYDVHWYQQVPGAAPRLLIYGTNNRPSGVPDRFSGSKSGTSASLTITGLQAEDEADYYCQSYDNSLTDPYVFGTGTKVTVL

The binders below were run against B.1.1.7 Spike (SARS-CoV2).

Row | Binder | Kd [pM] | Response
1 | B1 | 9.28 | 0.256
2 | B2 | 1.85 | 0.331
3 | B3 | 379 | 0.127
4 | B4 | 2.6 | 0.173
5 | B5 | 427 | 0.0668
6 | B6 | 1.91 | 0.113
7 | B7 | 1.47 | 0.199
8 | B8 | 9.11 | 0.135
9 | B9 | 7.98 | 0.355
10 | B10 | 2.29 | 0.202
11 | B11 | 10.3 | 0.203
12 | B12 | 1.37 | 0.336
13 | B13 | 2.36 | 0.388

Each binder was assayed against B.1.351 Spike (SARS-CoV2).

Row | Binder | Kd [pM] | Response
14 | B1 | 1340 | 0.12
15 | B2 | 562 | 0.199
16 | B3 | 360 | 0.13
17 | B4 | 7.03 | 0.213
18 | B5 | 1.13 | 0.0577
19 | B6 | 735 | 0.103
20 | B7 | 369 | 0.148
21 | B8 | 7.58 | 0.189
22 | B9 | 3.1 | 0.253
23 | B10 | 1090 | 0.0872
24 | B11 | 11.8 | 0.258
25 | B12 | 1.78 | 0.214
26 | B13 | < 1 | 0.405

Each binder was assayed against P.1 Spike (SARS-CoV2).

Row | Binder | Kd [pM] | Response
27 | B1 | 2.97 | 0.109
28 | B2 | 8 | 0.177
29 | B3 | 7.04 | 0.152
30 | B4 | 11.2 | 0.17
31 | B5 | 8.72 | 0.0396
32 | B6 | 4.88 | 0.112
33 | B7 | 9.52 | 0.103
34 | B8 | 8.79 | 0.123
35 | B9 | 9.75 | 0.27
36 | B10 | 10.6 | 0.0784
37 | B11 | 8.94 | 0.204
38 | B12 | 10.3 | 0.188
39 | B13 | 7.93 | 0.35
